Data from paper PMC2119638.

Columns and labels:
[1] = biological target: talin purified from chicken gizzard (chicken) (UniProt P54939); experiment: radioligand binding
[2] = biological target: 190-kD proteolytic fragment of talin (chicken) (UniProt P54939); experiment: radioligand binding

Kd, high affinity interaction [1]: 30 nM | Kd, higher affinity of two [1]: 10 nM | Kd, lower affinity interaction [1]: 550 nM | Kd, lower affinity of two [1]: 240 nM | N (Bmax), high affinity interaction (mol of vinculin bound per mol of talin) [1]: 0.15 | N (Bmax), lower affinity interaction (mol of vinculin bound per mol of talin) [1]: 3 | Kd, higher affinity of two [2]: 16 nM | Kd, lower affinity of two [2]: 220 nM
Substance: vinculin purified from chicken gizzard (natural protein)
